Data: patent US20160200782A1 (MOERAE MATRIX, published 2016)
Blank lines part the entries; values can stand above or below the binder they belong to.

Assays:
Experiment in all cases: cell-based or functional assay
EphB3(h) = target: T1, EphB3(h) (human, UniProt P54753 581-998, limits assumed)
T1 sequence (looked up): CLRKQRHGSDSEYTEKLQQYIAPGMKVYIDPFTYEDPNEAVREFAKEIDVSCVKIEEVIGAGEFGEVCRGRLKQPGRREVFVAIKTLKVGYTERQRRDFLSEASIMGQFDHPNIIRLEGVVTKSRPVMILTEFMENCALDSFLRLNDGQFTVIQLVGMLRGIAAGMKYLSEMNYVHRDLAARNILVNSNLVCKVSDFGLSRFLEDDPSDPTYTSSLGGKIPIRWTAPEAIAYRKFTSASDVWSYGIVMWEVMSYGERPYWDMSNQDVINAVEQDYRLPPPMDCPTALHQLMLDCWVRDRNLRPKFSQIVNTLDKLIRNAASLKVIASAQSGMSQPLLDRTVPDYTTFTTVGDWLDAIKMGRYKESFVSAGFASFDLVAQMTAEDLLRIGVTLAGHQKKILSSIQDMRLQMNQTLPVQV

IRAK1(h) = IRAK1(h) (human, UniProt P51617 194-712, limits assumed)
Pim-3(h) = Pim-3(h) (human, UniProt Q86V86 1-326)
Met(h) = Met(h) (human, UniProt P08581 956-1390, limits assumed)
IRR(h) = IRR(h) (human, UniProt P14616 960-1297, limits assumed)
HIPK2(h) = HIPK2(h) (human, UniProt Q9H2X6 165-564, limits assumed)
CDK5/p25(h) = CDK5/p25(h) (human, UniProt Q00535 1-292; Q15078 99-307)
NEK6(h) = NEK6(h) (human, UniProt Q9HC98 1-313)
Met(M1268T)(h) = Met(M1268T)(h) (human, UniProt P08581-2 974-1408, limits assumed)
PDGFRα(D842V)(h) = PDGFRα(D842V)(h) (human, UniProt P16234 550-1089, limits assumed)
Flt4(h) = Flt4(h) (human, UniProt P35916 800-1363, limits assumed)
MKK6(h) = target: T2, MKK6(h) (human, UniProt P52564 1-334, limits assumed)
T2 sequence (looked up): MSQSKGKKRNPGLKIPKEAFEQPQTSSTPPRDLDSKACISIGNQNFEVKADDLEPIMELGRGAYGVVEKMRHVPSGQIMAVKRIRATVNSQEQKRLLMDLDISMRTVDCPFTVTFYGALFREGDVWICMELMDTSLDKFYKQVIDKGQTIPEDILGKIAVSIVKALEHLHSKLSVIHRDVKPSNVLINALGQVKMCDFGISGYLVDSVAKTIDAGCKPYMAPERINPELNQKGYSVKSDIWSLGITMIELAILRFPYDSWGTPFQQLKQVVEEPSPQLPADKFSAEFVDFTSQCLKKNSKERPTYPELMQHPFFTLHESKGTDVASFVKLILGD

CHK2(h) = CHK2(h) (human, UniProt O96017 5-543, limits assumed)
PKBβ(h) = PKBβ(h) (human, UniProt P31751 1-481, limits assumed)
EphA7(h) = EphA7(h) (human, UniProt Q15375 577-998, limits assumed)
Mer(h) = target: T3, Mer(h) (human, UniProt Q12866 578-872, limits assumed)
T3 sequence (looked up): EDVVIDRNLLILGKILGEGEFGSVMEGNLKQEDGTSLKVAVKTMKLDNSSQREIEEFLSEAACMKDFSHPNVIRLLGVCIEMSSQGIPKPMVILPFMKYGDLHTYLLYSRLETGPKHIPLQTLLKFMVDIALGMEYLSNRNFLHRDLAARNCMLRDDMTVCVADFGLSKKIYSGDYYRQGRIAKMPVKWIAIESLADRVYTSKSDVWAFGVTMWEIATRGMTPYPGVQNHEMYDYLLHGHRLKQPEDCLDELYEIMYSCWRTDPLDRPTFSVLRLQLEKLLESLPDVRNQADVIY

PRK2(h) = PRK2(h) (human, UniProt Q16513 501-984, limits assumed)
SAPK3(h) = target: T4, SAPK3(h) (human, UniProt P53778 1-367)
T4 sequence (looked up): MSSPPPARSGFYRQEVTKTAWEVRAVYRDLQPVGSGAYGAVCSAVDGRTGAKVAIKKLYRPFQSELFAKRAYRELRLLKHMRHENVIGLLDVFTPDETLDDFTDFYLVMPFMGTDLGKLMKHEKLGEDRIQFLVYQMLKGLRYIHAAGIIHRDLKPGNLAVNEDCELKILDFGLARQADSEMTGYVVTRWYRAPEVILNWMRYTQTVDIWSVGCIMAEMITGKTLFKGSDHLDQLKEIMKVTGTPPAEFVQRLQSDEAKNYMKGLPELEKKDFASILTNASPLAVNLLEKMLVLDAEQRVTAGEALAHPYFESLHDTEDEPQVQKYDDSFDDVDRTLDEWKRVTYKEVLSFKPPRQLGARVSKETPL

Met(Y1248H)(h) = Met(Y1248H)(h) (human, UniProt P08581-2 974-1408, limits assumed)
Also: test concentration or dose not given here.

Sequence of NEK6(h) (Q9HC98 whole entry): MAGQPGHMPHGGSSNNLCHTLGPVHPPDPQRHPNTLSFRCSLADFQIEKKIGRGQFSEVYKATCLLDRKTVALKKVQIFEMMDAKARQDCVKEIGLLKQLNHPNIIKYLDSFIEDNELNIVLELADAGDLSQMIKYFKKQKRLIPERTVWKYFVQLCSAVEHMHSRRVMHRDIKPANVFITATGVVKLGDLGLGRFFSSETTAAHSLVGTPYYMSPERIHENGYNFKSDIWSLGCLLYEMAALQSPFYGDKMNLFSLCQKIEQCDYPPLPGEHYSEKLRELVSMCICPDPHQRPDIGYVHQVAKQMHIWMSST
Sequence of HIPK2(h) (Q9H2X6 165-564 limits assumed): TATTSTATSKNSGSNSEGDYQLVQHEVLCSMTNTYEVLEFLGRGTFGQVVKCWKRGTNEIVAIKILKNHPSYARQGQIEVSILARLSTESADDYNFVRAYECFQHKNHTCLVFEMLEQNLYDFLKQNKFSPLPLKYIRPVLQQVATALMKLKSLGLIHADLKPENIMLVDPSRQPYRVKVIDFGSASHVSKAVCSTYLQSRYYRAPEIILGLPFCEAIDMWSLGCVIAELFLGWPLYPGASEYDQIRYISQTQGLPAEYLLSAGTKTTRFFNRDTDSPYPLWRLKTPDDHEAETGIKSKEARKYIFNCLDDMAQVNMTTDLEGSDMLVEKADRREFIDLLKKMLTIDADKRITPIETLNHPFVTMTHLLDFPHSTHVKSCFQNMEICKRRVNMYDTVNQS
Sequence of Flt4(h) (P35916 800-1363 limits assumed): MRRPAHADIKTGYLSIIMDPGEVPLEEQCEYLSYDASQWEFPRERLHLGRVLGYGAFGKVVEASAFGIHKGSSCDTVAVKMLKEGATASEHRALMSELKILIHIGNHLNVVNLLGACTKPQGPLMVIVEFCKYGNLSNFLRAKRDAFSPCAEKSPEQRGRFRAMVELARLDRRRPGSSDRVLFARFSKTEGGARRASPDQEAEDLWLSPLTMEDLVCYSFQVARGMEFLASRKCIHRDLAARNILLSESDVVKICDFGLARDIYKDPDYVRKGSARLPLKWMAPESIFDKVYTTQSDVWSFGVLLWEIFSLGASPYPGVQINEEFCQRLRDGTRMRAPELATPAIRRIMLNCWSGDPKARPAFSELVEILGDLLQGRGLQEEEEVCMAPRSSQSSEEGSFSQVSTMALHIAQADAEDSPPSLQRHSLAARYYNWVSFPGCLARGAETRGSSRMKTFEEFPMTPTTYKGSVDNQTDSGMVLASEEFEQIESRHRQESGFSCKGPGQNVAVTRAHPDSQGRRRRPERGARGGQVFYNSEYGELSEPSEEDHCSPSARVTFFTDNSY
Sequence of PDGFRα(D842V)(h) (P16234 550-1089 D842V limits assumed): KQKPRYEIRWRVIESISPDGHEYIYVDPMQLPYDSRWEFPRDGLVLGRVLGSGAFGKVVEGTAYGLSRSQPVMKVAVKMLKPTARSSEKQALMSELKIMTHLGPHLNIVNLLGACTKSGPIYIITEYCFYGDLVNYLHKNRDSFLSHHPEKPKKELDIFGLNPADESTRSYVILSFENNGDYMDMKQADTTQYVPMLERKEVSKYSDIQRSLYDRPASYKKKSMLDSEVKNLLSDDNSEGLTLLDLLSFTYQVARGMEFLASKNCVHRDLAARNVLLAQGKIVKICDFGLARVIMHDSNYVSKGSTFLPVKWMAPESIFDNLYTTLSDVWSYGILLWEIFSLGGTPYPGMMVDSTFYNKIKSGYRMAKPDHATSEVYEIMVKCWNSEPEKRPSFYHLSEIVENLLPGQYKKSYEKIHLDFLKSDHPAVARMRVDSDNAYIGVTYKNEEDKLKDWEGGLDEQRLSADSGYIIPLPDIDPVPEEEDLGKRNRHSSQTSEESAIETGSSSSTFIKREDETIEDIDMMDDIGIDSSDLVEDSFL
Sequence of IRR(h) (P14616 960-1297 limits assumed): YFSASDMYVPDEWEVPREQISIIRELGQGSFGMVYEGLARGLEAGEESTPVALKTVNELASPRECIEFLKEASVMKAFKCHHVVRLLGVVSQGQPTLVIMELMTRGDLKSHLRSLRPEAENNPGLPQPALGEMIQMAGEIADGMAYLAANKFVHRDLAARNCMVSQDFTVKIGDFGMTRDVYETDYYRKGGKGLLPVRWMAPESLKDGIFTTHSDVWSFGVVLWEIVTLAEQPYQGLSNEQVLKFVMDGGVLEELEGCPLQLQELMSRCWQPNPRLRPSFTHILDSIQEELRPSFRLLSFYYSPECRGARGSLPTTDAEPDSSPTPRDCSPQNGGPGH
Sequence of IRAK1(h) (P51617 194-712 limits assumed): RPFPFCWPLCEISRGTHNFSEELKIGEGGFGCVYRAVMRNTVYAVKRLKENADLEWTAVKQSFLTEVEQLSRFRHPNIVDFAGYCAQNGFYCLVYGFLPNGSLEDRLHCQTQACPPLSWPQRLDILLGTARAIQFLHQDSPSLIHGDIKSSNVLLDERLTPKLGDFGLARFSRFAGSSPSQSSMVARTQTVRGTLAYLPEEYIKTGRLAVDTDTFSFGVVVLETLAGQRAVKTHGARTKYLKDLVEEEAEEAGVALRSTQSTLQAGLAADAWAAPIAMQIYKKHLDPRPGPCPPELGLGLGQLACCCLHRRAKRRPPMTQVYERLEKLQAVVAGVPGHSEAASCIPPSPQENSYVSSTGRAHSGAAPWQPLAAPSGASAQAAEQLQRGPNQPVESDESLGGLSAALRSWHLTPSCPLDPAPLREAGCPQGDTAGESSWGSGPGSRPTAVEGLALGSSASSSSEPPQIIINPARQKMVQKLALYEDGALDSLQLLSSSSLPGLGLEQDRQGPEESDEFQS
Sequence of EphA7(h) (Q15375 577-998 limits assumed): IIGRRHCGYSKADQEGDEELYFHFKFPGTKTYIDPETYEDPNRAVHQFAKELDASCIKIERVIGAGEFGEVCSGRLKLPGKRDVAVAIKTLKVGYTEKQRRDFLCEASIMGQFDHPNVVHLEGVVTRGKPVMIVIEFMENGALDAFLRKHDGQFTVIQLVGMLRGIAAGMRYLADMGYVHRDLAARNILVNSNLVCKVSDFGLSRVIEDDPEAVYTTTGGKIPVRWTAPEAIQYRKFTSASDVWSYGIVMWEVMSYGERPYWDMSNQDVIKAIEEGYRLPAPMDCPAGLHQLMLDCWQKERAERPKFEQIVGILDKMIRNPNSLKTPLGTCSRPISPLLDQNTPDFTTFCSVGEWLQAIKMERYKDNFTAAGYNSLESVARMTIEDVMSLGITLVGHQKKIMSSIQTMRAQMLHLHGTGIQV
Sequence of CHK2(h) (O96017 5-543 limits assumed): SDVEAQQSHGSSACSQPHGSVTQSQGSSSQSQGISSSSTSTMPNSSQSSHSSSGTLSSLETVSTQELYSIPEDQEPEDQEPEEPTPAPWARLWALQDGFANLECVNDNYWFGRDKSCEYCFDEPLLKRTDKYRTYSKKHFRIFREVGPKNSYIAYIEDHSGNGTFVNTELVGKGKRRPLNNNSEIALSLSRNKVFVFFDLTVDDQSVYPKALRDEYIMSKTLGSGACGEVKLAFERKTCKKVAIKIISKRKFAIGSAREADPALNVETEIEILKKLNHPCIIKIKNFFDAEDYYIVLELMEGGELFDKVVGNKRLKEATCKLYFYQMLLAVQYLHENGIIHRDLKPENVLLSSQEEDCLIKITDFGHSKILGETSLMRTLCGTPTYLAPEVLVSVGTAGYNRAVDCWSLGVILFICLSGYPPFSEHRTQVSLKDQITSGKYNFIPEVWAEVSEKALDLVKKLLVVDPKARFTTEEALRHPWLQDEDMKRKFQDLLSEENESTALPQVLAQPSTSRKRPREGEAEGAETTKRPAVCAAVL
Sequence of PRK2(h) (Q16513 501-984 limits assumed): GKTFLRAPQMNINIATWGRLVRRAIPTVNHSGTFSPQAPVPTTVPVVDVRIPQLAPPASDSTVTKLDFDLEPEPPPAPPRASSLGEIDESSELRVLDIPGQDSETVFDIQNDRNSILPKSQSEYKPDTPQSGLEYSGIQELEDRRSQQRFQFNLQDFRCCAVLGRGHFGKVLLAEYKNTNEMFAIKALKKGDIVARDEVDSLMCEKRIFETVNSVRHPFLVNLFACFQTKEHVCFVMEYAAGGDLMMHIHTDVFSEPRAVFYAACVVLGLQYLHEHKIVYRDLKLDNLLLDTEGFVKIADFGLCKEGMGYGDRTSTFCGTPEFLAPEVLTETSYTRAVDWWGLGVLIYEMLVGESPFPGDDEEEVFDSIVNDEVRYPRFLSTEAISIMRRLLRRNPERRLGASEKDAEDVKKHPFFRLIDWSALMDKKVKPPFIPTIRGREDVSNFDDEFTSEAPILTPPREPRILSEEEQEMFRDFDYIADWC
Sequence of PKBβ(h) (P31751 whole entry): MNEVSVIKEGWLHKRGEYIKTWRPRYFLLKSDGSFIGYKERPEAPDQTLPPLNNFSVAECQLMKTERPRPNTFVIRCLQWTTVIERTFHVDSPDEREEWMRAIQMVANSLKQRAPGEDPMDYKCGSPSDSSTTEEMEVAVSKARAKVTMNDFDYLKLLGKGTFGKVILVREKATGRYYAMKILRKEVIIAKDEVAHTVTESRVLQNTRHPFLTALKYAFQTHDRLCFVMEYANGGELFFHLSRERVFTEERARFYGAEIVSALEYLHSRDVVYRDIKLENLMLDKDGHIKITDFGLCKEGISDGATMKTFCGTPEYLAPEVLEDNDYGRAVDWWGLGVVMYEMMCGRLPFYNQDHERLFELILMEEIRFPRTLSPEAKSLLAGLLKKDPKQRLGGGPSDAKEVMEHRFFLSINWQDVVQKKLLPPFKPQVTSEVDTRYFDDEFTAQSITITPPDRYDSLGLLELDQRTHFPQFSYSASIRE

% activity (EphB3(h)): 62%
% activity (IRAK1(h)): 95%
% activity (Pim-3(h)): 80%
% activity (Met(h)): 65%
% activity (IRR(h)): 8%
% activity (HIPK2(h)): 73%
% activity (CDK5/p25(h)): 89%
% activity (NEK6(h)): 82%
% activity (Met(M1268T)(h)): 255%
% activity (PDGFRα(D842V)(h)): 114%
% activity (Flt4(h)): 83%
% activity (MKK6(h)): 48%
% activity (CHK2(h)): 66%
% activity (PKBβ(h)): 84%
% activity (EphA7(h)): 159%
% activity (Mer(h)): 52%
% activity (PRK2(h)): 33%
% activity (SAPK3(h)): 84%
% activity (Met(Y1248H)(h)): 117%
B1: MMI-0300 (peptide)
peptide: FAKLAARLYRKALARQLGVAA

% activity (EphB3(h)): 47%
% activity (IRAK1(h)): 93%
% activity (Pim-3(h)): 80%
% activity (Met(h)): 62%
% activity (IRR(h)): 8%
% activity (HIPK2(h)): 90%
% activity (CDK5/p25(h)): 92%
% activity (NEK6(h)): 85%
% activity (Met(M1268T)(h)): 265%
% activity (PDGFRα(D842V)(h)): 118%
% activity (Flt4(h)): 89%
% activity (MKK6(h)): 44%
% activity (CHK2(h)): 54%
% activity (PKBβ(h)): 98%
% activity (EphA7(h)): 222%
% activity (Mer(h)): 50%
% activity (PRK2(h)): 27%
% activity (SAPK3(h)): 79%
% activity (Met(Y1248H)(h)): 63%
B2: MMI-0400 (peptide)
peptide: KAFAKLAARLYRKALARQLGVAA
